One may read the Kd as the free concentration of one partner at which half of the binding sites on the other are occupied at equilibrium, for simple one-to-one binding. One may read the koff as a measure of how fast the partners let go of each other. The kon is the second-order rate constant of association.

Consider four molecules from article PMC8017925, “Structural basis for differential recognition of phosphohistidine-containing peptides by 1-pHis and 3-pHis monoclonal antibodies” (Proceedings of the National Academy of Sciences of the …, 2021).

Assay [1] concerns the target T1, ACLY peptide, 3-pHis form.
T1 sequence (peptide, biotin on the N-terminus; C-terminal amide; 3-phosphohistidine at position 5): VQFGHAGAC
The assay is described as follows: BLI; biotinylated pHis peptides (20 nM) on streptavidin biosensors, Fab in solution at varying concentrations; 50 mM Hepes pH 8.0, 150 mM NaCl, 0.05% Tween-20, 0.2% BSA; Octet RED96e; global fit to a 1:1 Langmuir model.

The target of assay [2] is T2, Common-His peptide, 3-pHis form.
T2 sequence (peptide, biotin on the N-terminus; C-terminal amide; 3-phosphohistidine at position 5): GEQLHDLNA
The description is as above.

Assay [3] addresses T3, NM23 peptide, 3-pHis form.
T3 sequence (peptide, biotin on the N-terminus; C-terminal amide; 3-phosphohistidine at position 5): RNIIHGSDS
The description is as above.

Substrate in assay [4]: SCS peptide, 3-pHis form
The assay is described as above.

In assay [5] the target is T4, ACLYana-3-pHis peptide (AGAG-3-pHis-AGAG).
T4 sequence (peptide, 3-phosphohistidine at position 5; biotin on the N-terminus): AGAGHAGAG
The assay is described as follows: BLI; N-terminally biotinylated peptides (20 nM) on streptavidin biosensors, varying concentrations of Fab in solution; 50 mM Hepes pH 8.0, 150 mM NaCl, 0.05% Tween-20, 0.2% BSA; association 120 s, dissociation 200 s; global fit to a 1:1 Langmuir model; Octet RED96e; in triplicate. Background: Biolayer interferometry detects binding as a change in optical thickness at a sensor tip.

Assay [6] addresses ACLYana-3-pTza peptide (AGAG-3-pTza-AGAG). The assay is described as above.
For assay [7] the target is unchanged. The assay is described as follows: BLI binding kinetics of 3-pHis Fabs with cognate pTza peptide. Particulars: triplicate; for Kd: BLI Octet RED96e, N-terminally biotinylated peptide (20 nM) on streptavidin biosensors, varying Fab concentration, 50 mM Hepes pH 8.0, 150 mM NaCl, 0.05% Tween-20, 0.2% BSA, association 120 s, dissociation 200 s, global fit 1:1 Langmuir; for ka / kd: BLI, immobilized biotinylated ACLYana-3-pTza, 1:1 Langmuir global fit. The procedure: (§1) Biolayer interferometry (BLI) studies were performed to determine the relative affinity of pHis Fabs to in situ phosphorylated His peptides versus the phosphomimetic substrates. The N-terminally biotinylated peptides were immobilized on streptavidin biosensors and the rate of association (ka) and dissociation (kd) were determined by varying the pHis Fab concentration. Equilibrium dissociation constants (KD) were determined by fitting the experimental data to a 1:1 Langmuir binding model. ACLYana-1-pTza and ACLYana-3-pTza peptides were used to determine affinity to 1-pHis and 3-pHis Fabs, respectively (Fig. 3 A–E and Table 1). […] The two isomers were separated from each other by passing the reaction through affinity columns containing 1-pHis mAbs using SC1-1 or SC50-3 IgGs or 3-pHis mAbs using SC39-4, SC44-8, and SC56-2 IgGs. The eluates thus contained either predominantly 1-pHis or 3-pHis peptides. These peptides were used to determine the affinity to their respective isomer class of pHis Fabs (Fig. 3 F–J, Table 1, and SI Appendix, Fig. S5). […] This experimental observation is well supported by the higher number of hydrogen bonds that support the SC44-8:3-pTza interaction compared to other pHis Fabs (SI Appendix, Table S5). […] There are at least three reasons for the lower affinity of the mAbs for pHis peptides compared to pTza peptides: The continuous hydrolysis of phosphate from the pHis peptides during the course of the experiment (SI Appendix, Fig. S6), a reduction in the number of hydrogen bond interactions due to one less nitrogen in the imidazole ring compared to triazolyl ring (Fig. 4 and SI Appendix, Fig. S8), and inherently different electronic properties of the imidazole and triazolyl rings in His and Tza, respectively ([20]).
(§2) Fig. 3. Binding kinetics of pHis Fabs with cognate pTza and pHis peptides. BLI studies of immobilized peptides (ACLYana-1/3-pTza and phosphorylated ACLYana) with varying concentrations of the pHis Fabs were carried out in triplicate on an Octet Red96e instrument (FortéBio). SC1-1 (A) and SC50-3 (B) pHis Fab interaction with their ACLYana-1-pTza peptides. SC39-4 (C), SC44-8 (D), and SC56-2 (E) pHis Fabs interactions with ACLYana-3-pTza peptides. SC1-1 (F), SC50-3 (G), SC39-4 (H), SC44-8 (I), and SC56-2 (J) pHis Fabs interactions with their affinity-purified ACLYana-pHis peptides are represented, Right. The experimental data are represented in the black dashed lines and the nonlinear least-squares fitting was represented in the red continuous lines. The χ^2 for the goodness of fit is under 1.0 for the all the plots.
(§3) The binding kinetics of pHis Fabs with the peptides (pTza and pHis) were evaluated with an Octet RED96e (FortéBio). Streptavidin-coated biosensors (FortéBio) were presoaked in buffer containing 50 mM Hepes pH 8.0, 150 mM NaCl, 0.05% Tween-20, and 0.2% BSA for 15 min. The biotinylated pTza peptides or pHis peptides (20 nM) with and without phosphoramidate treatment were coated onto these streptavidin biosensors and analyzed for their binding to varying concentrations of the pHis Fabs with an association time of 120 s and dissociation time of 200 s. The entire set of experiments was repeated three times. The data were analyzed using the Octet software (FortéBio) and the rates of association and dissociation were obtained by global fitting data to the 1:1 Langmuir interaction model.

Assay [8] has as its system ACLYana-3-pHis peptide (AGAG-3-pHis-AGAG). In words: BLI binding kinetics of 3-pHis Fabs with affinity-purified pHis peptide. Particulars: for ka / kd / Kd: BLI, 1:1 Langmuir global fit, triplicate; for ka / kd: affinity-purified ACLYana-3-pHis peptide; for Kd: ACLYana phosphorylated with phosphoramidate (8 h, 23 °C), 3-pHis isomer affinity-purified on 3-pHis IgG column, immobilized on streptavidin biosensors, Hepes pH 8.0; for affinity for 3-pHis peptides, times (fold) weaker than for the 3-pTza peptide: ratio of BLI KD, 3-pHis versus 3-pTza peptide. As to the method:
as §1, §2
as §3, with “model. […]” for “model.”
Peptides used in the DSF and BLI experiments were synthesized by the Salk Peptide Synthesis Core. These peptides were N-terminally biotinylated and C-terminally amidated. They were synthesized using standard Fmoc chemistry on a Gyros Protein Technologies Tribute peptide synthesizer with UV monitoring. Following the deprotection, peptides were analyzed by mass spectrometry and analytical HPLC by the Proteomics Core at Salk. The peptides were HPLC purified to 99% purity by 21st Century Biochemicals, Inc. The Fmoc-pTza’s were synthesized at 10 g scale for incorporation into the peptides. […]

B1: SC39-4 Fab (Fab, V domains shown)
VH: QSVEESGGRLVTPGGSLTLTCTVSGFSLSRYNMGWVRQAPGKGLEWIGWIPFRGSLKYATWATGRFTISRTSTTVDLRMTGLTAADTATYFCVRSSDGFDLWGPGTLVTISS
VL: DMTQTPASVEAVVGGTVTIKCQASRDTGDGLIWYQQKPGQPPKRLIYKASTVASGVPSRFKGRGSGTDFTLTISDLECADAATYYCHSNFYNRWTYGNAFGGGTEVVVK
With B1, the dissociation constant Kd amounted to 1420 nM in assay [1]; 3290 nM in assay [2]; 2350 nM in assay [3]; 2320 nM in assay [4]; 799 nM in assay [5]; 67 nM in assay [6]. The off-rate (koff) came to 0.0243 s⁻¹ in assay [1]; 0.0454 s⁻¹ in assay [2]; 0.073 s⁻¹ in assay [3]; 0.0521 s⁻¹ in assay [4]; 0.117 s⁻¹ in assay [5]; 0.011 s⁻¹ in assay [6]. The kon worked out at 72200 M⁻¹ s⁻¹ in assay [1]; 13800 M⁻¹ s⁻¹ in assay [2]; 51400 M⁻¹ s⁻¹ in assay [3]; 22400 M⁻¹ s⁻¹ in assay [4]; 147000 M⁻¹ s⁻¹ in assay [5]; 164000 M⁻¹ s⁻¹ in assay [6].

B2: SC39-4: Fab of rabbit 3-pHis-specific monoclonal antibody (antibody, V domains shown)
VH: B1 VH
VL: B1 VL
For the molecule B2, in assay [7], the Kd came to 67 nM, the ka was 164000 ± 1060 M⁻¹ s⁻¹ and the kd was 0.011 ± 1.6e-05 s⁻¹. In assay [8], the ka was 147000 ± 5780 M⁻¹ s⁻¹; the kd is 0.117 ± 0.0016 s⁻¹; binding was put at a Kd of 799 nM; the “affinity for 3-pHis peptides, times (fold) weaker than for the 3-pTza peptide” value fell in the range of 10 to 25 times.

B3: SC56-2 Fab (Fab, V domains shown)
VH: QSVEESEGGLIKPGGILTLTCTASGFSLSSYGFSWVRQAPGKGLEHIGYLHANGRAYYATWAKSRSTITRNTNLNTVTLQLTSLTAADTATYFCAKIGSVSDVAIWGPGTLVTISS
VL: DMTQTPSSTSAAVGGTVTINCQSSESIYNNKNLAWYQQKPGQSPRRLIYSISTLASGVSSRFKGSGSGTQFTLTISDVQCDDAATYYCVGYYYSGGYYYSGSAAYYAFGGGTEVVVK
Turning to B3, the dissociation constant (Kd) is 3010 nM in assay [1]; 3600 nM in assay [2]; 5700 nM in assay [3]; 6200 nM in assay [4]; 2420 nM in assay [5]; 96.6 nM in assay [6]. The off-rate constant (koff) in assay [1] was determined as 0.15 s⁻¹; in assay [2], 0.127 s⁻¹; in assay [3] it was 0.126 s⁻¹; in assay [4], 0.136 s⁻¹; in assay [5], 0.183 s⁻¹; in assay [6], 0.00939 s⁻¹. The association rate constant (kon) in assay [1] was 50100 M⁻¹ s⁻¹; in assay [2] it was 35600 M⁻¹ s⁻¹; in assay [3], 22200 M⁻¹ s⁻¹; in assay [4] it was 22000 M⁻¹ s⁻¹; in assay [5], 75600 M⁻¹ s⁻¹; in assay [6], 97300 M⁻¹ s⁻¹.

B4: SC56-2: Fab of rabbit 3-pHis-specific monoclonal antibody (antibody, V domains shown)
VH: B3 VH
VL: B3 VL
Take B4: in assay [7], the affinity, expressed as Kd, was 96.6 nM; the ka came to 97300 ± 1110 M⁻¹ s⁻¹; the kd amounted to 0.00939 ± 1.78e-05 s⁻¹. In assay [8], the ka was found to be 75600 ± 2170 M⁻¹ s⁻¹; the kd stood at 0.183 ± 0.00181 s⁻¹; the Kd is 2420 nM; the “affinity for 3-pHis peptides, times (fold) weaker than for the 3-pTza peptide” value was in the range of 10 to 25 times.
